Bridge positions count the residues as written; N and C are the ends. Ends that are not written are not given here. Peptide text beside a SMILES is read from it. I, II: the chains in the order shown.
How the values were obtained:
[1] = target: T1, human NOP (Homo sapiens, UniProt P41146); test: Calcium mobilization assay, CHO cells with NOP receptor and chimeric G protein; format: cell-based; parameters: expressed in transfected cells; conditions: for EC50: CHO cells coexpressing human NOP and Gαqi5, Fluo-4, 37 °C, mean (CL95%), N = 5 experiments in duplicate, read-out: Ca^2+ mobilization pEC50 (CL95%) (converted); for Ca^2+ mobilization E max ± sem: CHO cells coexpressing human NOP and Gαqi5, maximum change in percentage over baseline fluorescence, mean ± sem, N = 5 in duplicate
Experimental: Chinese hamster ovary (CHO) cells stably coexpressing the human NOP, μ, or κ opioid receptors and the Gαqi5 protein or the human δ and the GαqG66Di5 protein were used in this assay. , Cells were cultured in DMEM/F-12 (1:1) medium supplemented with 10% FBS, 2 mM L-glutamine, […], 100 IU/mL penicillin, and 100 IU/mL streptomycin. Cells were maintained at 37 °C in a humidified atmosphere with 5% CO2 and were seeded at 50 000 cells/well into 96-well black, clear-bottom plates 24 h before test. Loading for 45 min with a solution consisting of HBSS supplemented with 2.5 mM probenecid, 3 μM Fluo-4 AM, and 0.01% pluronic acid ensures the calcium-sensitive dye (Fluo-4) reaches the needed concentration inside the cell, while the exchange of the solution with 100 μL/well of buffer consisting of HBSS with 20 mM HEPES, 2.5 mM probenecid, and 500 μM Brilliant Black allows for fluorescence background to decrease. Serial dilutions of ligands were prepared in HBSS buffer with 20 mM HEPES and 0.02% bovine serum albumin (BSA) to minimize the ligands’ stickiness to plasticware. The automated microplate reader FlexStation II (Molecular Devices, CA, US) was employed at 37 °C to detect changes in fluorescence intensity. The effects of all compounds were expressed as the maximum change in percentage over the baseline fluorescence measured in samples treated with vehicles.
(§1) Concentration-response curves to agonists were analyzed by a four-parameter logistic nonlinear regression model: Effect = baseline + (E max – baseline)/(1 + 10^((logEC50–log[ligand])slope)). […] Experimental data were expressed as mean ± sem of at least 5 experiments. Potency values were expressed as the mean and CL95%. In vitro E max values were analyzed by one-way ANOVA, while in vivo latency data were evaluated by one-way ANOVA followed by Dunnett’s post hoc test. The proportion of mice losing the righting reflex was compared by Fisher’s exact test performed on raw data. GraphPad Prism 10.0 software was used for all of the analyses. The terminology employed is consistent with the International Union of Basic and Clinical Pharmacology (IUPHAR) recommendations. ,

[2] = target: T1, human NOP; test: NOP receptor–G protein interaction BRET assay; format: biochemical; parameters: expressed in transfected cells; host or cells: membranes of HEK293 cells stably coexpressing NOP-RLuc and Gβ1-RGFP; conditions: N = 5 experiments in duplicate; for EC50: membranes from HEK293 cells coexpressing NOP-RLuc and Gβ1-RGFP, room temperature, mean (CL95%), read-out: NOP–G protein interaction pEC50 (CL95%) (converted)
Experimental: A BRET interaction assay was used, as previously detailed in ref , to study the propensity of ligands to evoke interaction between the NOP receptor and to G protein. Membranes taken from HEK293 cells stably coexpressing the fusoproteins NOP-RLuc and Gβ1-RGFP were used. Such cells were grown in DMEM medium supplemented with 10% FBS, 2 mM L-glutamine, […] G418, […] hygromycin B, 100 IU/mL penicillin, and 100 IU/mL streptomycin in a humidified atmosphere with 5% CO2 at 37 °C. Cell membranes were thawed and resuspended in PBS supplemented with 0.01% BSA before the assay, and an amount of 3 μg of total protein was dispensed in each of the 96 wells together with 2 μM Prolume Purple Coelenterazine. All experiments were carried out at room temperature. Ligands were added, and averaged BRET ratios from 10 min measurements were computed. BRET ratios were computed as counts per second (CPS) obtained on a Victor Nivo (PerkinElmer) with 405 (10) nm and 510 (30) nm bandpass filters. Vehicles’ BRET ratios were derived from light passed through 510 divided by that passed through 405 filters. Vehicles BRET values were subtracted from all computations, and data sets were normalized as a fraction of N/OFQ maximal effects.
as §1

[3] = target: NOP-RLuc (UniProt P41146); conditions: for E max, NOP–G protein interaction (BRET), normalised to N/OFQ-NH2 (E max = 1): scale: fraction of the maximal effect of N/OFQ-NH2
[4] = target: human nociceptin/orphanin FQ (N/OFQ) peptide receptor (human) (UniProt P41146)
human nociceptin/orphanin FQ (N/OFQ) peptide receptor (human), sequence (P41146 whole entry): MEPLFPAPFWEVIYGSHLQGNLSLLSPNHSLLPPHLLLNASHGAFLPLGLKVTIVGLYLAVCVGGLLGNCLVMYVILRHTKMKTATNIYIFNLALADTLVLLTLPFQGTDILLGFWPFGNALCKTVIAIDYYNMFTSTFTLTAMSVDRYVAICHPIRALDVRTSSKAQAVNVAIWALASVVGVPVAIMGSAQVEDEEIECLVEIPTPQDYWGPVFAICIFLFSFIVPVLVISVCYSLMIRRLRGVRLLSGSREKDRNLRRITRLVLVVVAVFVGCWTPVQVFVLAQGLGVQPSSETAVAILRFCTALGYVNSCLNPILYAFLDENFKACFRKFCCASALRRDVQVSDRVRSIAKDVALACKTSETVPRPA

NOP-RLuc, sequence (P41146 whole entry): as above
T1 sequence (P41146 whole entry): as above

Molecule | EC50 [1] [nM] | Ca^2+ mobilization E max ± sem [1] [% over the baseline] | NOP–G protein interaction E max ± sem ([2]; effects normalized to N/OFQ-NH2 (E max = 1), mean ± sem) | EC50 [2] [nM] | pEC50, NOP–G protein interaction (BRET, membranes of HEK293 cells with NOP-RLuc and Gβ1-RGFP) [3] [pEC50] | E max, NOP–G protein interaction (BRET), normalised to N/OFQ-NH2 (E max = 1) [3] | E max, Ca^2+ mobilization in CHO cells with human NOP and Gαqi5 (% over baseline) [4] | pEC50, Ca^2+ mobilization in CHO cells with human NOP and Gαqi5 [4] [pEC50]
CC(C)C[C@H](NC(=O)[C@H](CCCCN)NC(=O)[C@H](CCCNC(=N)N)NC(=O)[C@H](C)NC(=O)[C@H](CO)NC(=O)[C@H](CCCCN)NC(=O)[C@H](CCCNC(=N)N)NC(=O)[C@H](CSSC[C@H](NC(=O)CNC(=O)[C@@H](NC(=O)[C@H](Cc1ccccc1)NC(=O)CNC(=O)CNC(=O)[C@@H](N)Cc1ccccc1)[C@@H](C)O)C(=O)N[C@@H](CCCNC(=N)N)C(=O)N[C@@H](CCCCN)C(=O)N[C@@H](CO)C(=O)N[C@@H](C)C(=O)N[C@@H](CCCNC(=N)N)C(=O)N[C@@H](CCCCN)C(=O)N[C@@H](CC(C)C)C(=O)N[C@@H](C)C(=O)N[C@@H](CC(N)=O)C(=O)N[C@@H](CCC(N)=O)C(N)=O)NC(=O)CNC(=O)[C@@H](NC(=O)[C@H](Cc1ccccc1)NC(=O)CNC(=O)CNC(=O)[C@@H](N)Cc1ccccc1)[C@@H](C)O)C(=O)N[C@@H](C)C(=O)N[C@@H](CC(N)=O)C(=O)N[C@@H](CCC(N)=O)C(N)=O [1a, [[Cys^7]N/OFQ-NH2]2] (I: H-FGGFTGCRKSARKLANQ-NH2 / II: H-FGGFTGCRKSARKLANQ-NH2; disulfide I:7-II:7) | 26.9 | 293 ± 18 | 1.09 ± 0.09 | 1.95 |  |  |  | 
CC(C)C[C@H](NC(=O)[C@H](CCCCN)NC(=O)[C@H](CCCNC(=N)N)NC(=O)[C@H](C)NC(=O)[C@H](CO)NC(=O)[C@H](CCCCN)NC(=O)[C@H](CSSC[C@H](NC(=O)[C@H](C)NC(=O)CNC(=O)[C@@H](NC(=O)[C@H](Cc1ccccc1)NC(=O)CNC(=O)CNC(=O)[C@@H](N)Cc1ccccc1)[C@@H](C)O)C(=O)N[C@@H](CCCCN)C(=O)N[C@@H](CO)C(=O)N[C@@H](C)C(=O)N[C@@H](CCCNC(=N)N)C(=O)N[C@@H](CCCCN)C(=O)N[C@@H](CC(C)C)C(=O)N[C@@H](C)C(=O)N[C@@H](CC(N)=O)C(=O)N[C@@H](CCC(N)=O)C(N)=O)NC(=O)[C@H](C)NC(=O)CNC(=O)[C@@H](NC(=O)[C@H](Cc1ccccc1)NC(=O)CNC(=O)CNC(=O)[C@@H](N)Cc1ccccc1)[C@@H](C)O)C(=O)N[C@@H](C)C(=O)N[C@@H](CC(N)=O)C(=O)N[C@@H](CCC(N)=O)C(N)=O [1b, [[Cys^8]N/OFQ-NH2]2] (I: H-FGGFTGACKSARKLANQ-NH2 / II: H-FGGFTGACKSARKLANQ-NH2; disulfide I:8-II:8) | 43.7 | 322 ± 20 |  | 9.12 |  |  |  | 
CC(C)C[C@H](NC(=O)[C@H](CCCCN)NC(=O)[C@H](CCCNC(=N)N)NC(=O)[C@H](C)NC(=O)[C@H](CO)NC(=O)[C@H](CSSC[C@H](NC(=O)[C@H](CCCNC(=N)N)NC(=O)[C@H](C)NC(=O)CNC(=O)[C@@H](NC(=O)[C@H](Cc1ccccc1)NC(=O)CNC(=O)CNC(=O)[C@@H](N)Cc1ccccc1)[C@@H](C)O)C(=O)N[C@@H](CO)C(=O)N[C@@H](C)C(=O)N[C@@H](CCCNC(=N)N)C(=O)N[C@@H](CCCCN)C(=O)N[C@@H](CC(C)C)C(=O)N[C@@H](C)C(=O)N[C@@H](CC(N)=O)C(=O)N[C@@H](CCC(N)=O)C(N)=O)NC(=O)[C@H](CCCNC(=N)N)NC(=O)[C@H](C)NC(=O)CNC(=O)[C@@H](NC(=O)[C@H](Cc1ccccc1)NC(=O)CNC(=O)CNC(=O)[C@@H](N)Cc1ccccc1)[C@@H](C)O)C(=O)N[C@@H](C)C(=O)N[C@@H](CC(N)=O)C(=O)N[C@@H](CCC(N)=O)C(N)=O [1c, [[Cys^9]N/OFQ-NH2]2] (I: H-FGGFTGARCSARKLANQ-NH2 / II: H-FGGFTGARCSARKLANQ-NH2; disulfide I:9-II:9) | 5.01 | 289 ± 18 |  | 1.35 |  |  |  | 
FGGFTGARKSARKLCNQ-NH2 (also: homodimer: Cys15-Cys15 disulfide to second copy) [[[Cys^15]N/OFQ-NH2]2] |  |  |  |  | 9.71 | 0.95 | 297 | 8.53
FGGFTGARKSACKLANQ-NH2 (also: homodimer: Cys12-Cys12 disulfide to second copy) [[[Cys^12]N/OFQ-NH2]2] |  |  |  |  | 8.9 | 1.07 | 346 | 8.52
FGGFTGARCSARKLANQ-NH2 (also: homodimer: Cys9-Cys9 disulfide to second copy) [[[Cys^9]N/OFQ-NH2]2] |  |  |  |  | 8.87 | 1.03 | 289 | 8.3
FGGFTGACKSARKLANQ-NH2 (also: homodimer: Cys8-Cys8 disulfide to second copy) [[[Cys^8]N/OFQ-NH2]2] |  |  |  |  | 8.04 | 1.04 | 322 | 7.36
FGGFTGARKSARCLANQ-NH2 (also: homodimer: Cys13-Cys13 disulfide to second copy) [[[Cys^13]N/OFQ-NH2]2] |  |  |  |  | 9.52 | 0.84 | 247 | 8.79
FGGFTGCRKSARKLANQ-NH2 (also: homodimer: Cys7-Cys7 disulfide to second copy) [[[Cys^7]N/OFQ-NH2]2] |  |  |  |  | 8.71 | 1.09 | 293 | 7.57
FGGFTGARKCARKLANQ-NH2 (also: homodimer: Cys10-Cys10 disulfide to second copy) [[[Cys^10]N/OFQ-NH2]2] |  |  |  |  | 9.85 | 1.07 | 305 | 8.72
FGGFTGARKSARKLACQ-NH2 (also: homodimer: Cys16-Cys16 disulfide to second copy) [[[Cys^16]N/OFQ-NH2]2] |  |  |  |  | 9.76 | 0.98 | 312 | 8.86
